The target in the test is T1, Spore-Cry1Fa (Bacillus subtilis spores displaying the Bacillus thuringiensis Cry1Fa protein as a … (Bacillus thuringiensis, UniProt Q03746 1-615)).
T1 construct: vector pSB634 or pHY300PLK
T1 sequence: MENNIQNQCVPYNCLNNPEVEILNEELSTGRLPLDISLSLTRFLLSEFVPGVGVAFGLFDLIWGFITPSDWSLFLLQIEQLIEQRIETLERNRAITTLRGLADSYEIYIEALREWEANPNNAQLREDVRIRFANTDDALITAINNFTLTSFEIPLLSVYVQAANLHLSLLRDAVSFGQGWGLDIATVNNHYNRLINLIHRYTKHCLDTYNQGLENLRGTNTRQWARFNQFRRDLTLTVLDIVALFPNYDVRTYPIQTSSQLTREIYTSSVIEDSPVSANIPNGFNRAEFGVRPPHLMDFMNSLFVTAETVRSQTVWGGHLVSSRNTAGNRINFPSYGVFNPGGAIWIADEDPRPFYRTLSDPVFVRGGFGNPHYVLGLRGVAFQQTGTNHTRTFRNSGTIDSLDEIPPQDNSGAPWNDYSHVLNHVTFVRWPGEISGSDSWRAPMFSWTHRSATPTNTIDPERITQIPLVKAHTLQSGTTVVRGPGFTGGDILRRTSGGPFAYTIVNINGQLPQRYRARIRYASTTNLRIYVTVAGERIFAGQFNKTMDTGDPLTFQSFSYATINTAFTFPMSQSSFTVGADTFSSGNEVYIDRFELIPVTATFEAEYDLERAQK
In words: bright field and fluorescence microscopy of spores mixed with Sf9 cells.

B1: Sf-ABCC2-Mutant (ABCC2 from a Cry1Fa-resistant Spodoptera frugiperda strain, C-terminal FLAG tag) expressed on Sf9 cells (receptor)
chain: MDKSNKNTAANGNGGQRAGEPKERVRKKPNILSRIFVWWIFPVLITGNKRDVEEDDLIVPSKKFNSERQGEYFERYWFEEVAIAEREDRDPSLWKAMRRAYWLQYMPGAIFVLLISGLRTAQPLLFSQLLSYWSVDSEMSQQDAGLYALAMLGINFITMMCTHHNNLFVMRFSMKVKIAASSLLFRKLLRMSQVSVGDVAGGKLVNLLSNDVARFDYAFMFLHYLWVVPLQVGVVLYFVYDAAGWAPYVGLFGVIILIMPLQAGLTKLTGVVRRMTAKRTDKRIKLMSEIINGIQVIKMYAWEKPFQLVVKAARAYEMSALRKSIFIRSMFLGFMLFTERSVMFLTVLTLALTGNMISATLIYPIQQYFGIITMNVTLILPMAFASFSEMLISLERIQGFLLLDERSDIQITPKVVNGAGSKLFNNSKKEGGLETGIVLPTKYSPTEANMARPMQDEPNMADYPVQLNKVNATWADLNDNKEMTLKNISSRVRKNKLCAVIGPVGSGKTSLLQLLLRELPVTSGNLSISGTVSYASQEPWLFPATVRENILFGLEYNVAKYKEVCKVCSLLPDFKQFPYGDLSLVGERGVSLSGGQRARINLARAVYREADIYLLDDPLSAVDANVGRQLFDGCIKGYLSGKTCILVTHQIHYLKAADFIVVLNEGSVENMGSYDELMKTGTEFSMLLSDQASEGSDTDKKERPAMMRGISKMSVKSDDEEGEEKVQVLEAEERQSGSLKWDVLGRYMKSVNSWCMVVMAFLVLVITQGAATTTDYWLSFWTNQVDIQTLPEGESKNPELNTQVGLLTTGQYLIVHGSVVLAIIILTQVRILSFVVMTMRASENLHNTIYEKLIVAVMRFFDTNPSGRVLNRFSKDMGAMDELLPRSMLETVQMYLSLASVLVLNAIALPWTLIPTTVLMFIFVFLLKWYINAAQAVKRLEGTTKSPVFGMINSTISGLSTIRSSNSQDRLLNSFDDAQNLHTSAFYTFLGGSTAFGLYLDTLCLIYLGIIMSIFILGDFGELIPVGSVGLAVSQSMVLTMMLQMAAKFTADFLGQMTAVERVLEYTKLPTEENMETGPTTPPKDWPSAGEVTFSNVYLKYSPDDPPVLKDLNFAIKSGWKVGVVGRTGAGKSSLISALFRLSDITGSIKIDGLDTQGIAKKLLRSKISIIPQEPVLFSASLRYNLDPFDNYNDEDIWRALEQVELKESIPALDYKVSEGGTNFSMGQRQLVCLARAILRSNKILIMDEATANVDPQTDALIQKTIRKQFATCTVLTIAHRLNTIMDSDRVLVMDQGVAAEFDHPYILLSNPNSKFSSMVKETGDNMSRILFEVAKTKYESDSKTADYKDDDDK
notes: Expressed in Sf9 cells by baculovirus
For B1, the binding result is reported as “no binding”.

The record behind these values is patent US20250059241A1 (SYNGENTA CROP PROTECTION, published 2025).
